These results are taken from patent publication US5336488A, “Method of treating or preventing mastitis in animals with involuting mammary glands by administering recombinant cytokines” (American Cyanamid Company, priority 1992, dated 1994).

A short description of data set [1]: Milk production in lactating glands after intramammary infusion or intramuscular injection. The data set is classed as in vivo, bovine (lactating dairy cows). As to conditions: for decrease of milk production: FIG. 3A. As to the method: FIGS. 3(A-I): Milk Production After Intramammary Infusion or Intramuscular Injection of r-BoIL-2 into Lactating Dairy Cows
Mean milk production in kilograms +/- Standard Error is recorded for 8 lactating dairy cows after intramammary infusion of r-BoIL-2 or no treatment. Data is shown as a percentage of the average milk production (Standard Deviation) compared to the first five days prior to Treatment (mean for 100% production level ). Production after r-BoIL-2 intramammary infusion with total dosing amounting to 4.5 mg or 13.5 mg in quarters infected with S. aureaus is compared to infected, untreated cows for a 6 day time period, panel A. Similarly, production is also followed in 7 lactating injections of r-BoIL-2 at 2.5 μg/kg/day for 5 days and compared to 3 normal PBS injected controls, panel B. All cows are in mid to late stages of their second or third lactation at the time of r-BoIL-2 therapy. All effects on milk production are transient, returning to pre-treatment levels within 96 hours after cessation of treatment.
In vivo measurement of daily milk production is also monitored for both intramammary infusions and intramuscular injection. Cows are milked morning and evening and the milk weighed and recorded in total kilograms per day. The total dose of IL-2 administered per cow ranges from 2 to 96 mg. Single or multiple intramammary infusions of IL-2 have variable effects on individual animal's milk production based upon the total dose of r-BoIL-2 administered per day, FIG. 3 A (INTRAMAMMARY). Production decreases as much as 30-40% by the third infusion in the high dose animals (13.5 mg), whereas only a 12% decrease is observed at the 4.5 mg dose (not statistically different from time 0 production or control animals). […] This induction would be of great significance to assist in the morphological changes required during early lactation and serves to accelerate the protective mechanisms.

The subject of data set [2] is PMNs from mammary glands early in involution. Description: Phagocytic activity of cells from dry cow secretions after cytokine treatment. The data set is classed as in vivo, bovine (Holstein dairy cattle). To be noted: treatment with IL-2. The protocol:
FIG. 5: Phagocytic Ability of PMNs After Cytokine Administration from Mammary Glands Early in Involution
A total of 4 mammary glands from 2 Holstein dairy cattle just entering the dry period are used. All quarters had been infected with S. aureaus for 4-6 weeks prior to treatment. Two of the quarters are treated with Cefa-Dri® and 2 quarters are treated with Cefa-Dri®+1 mg bovine IL-2 by intramammary infusion immediately following the last milking prior to drying-off. Dry cow secretions are then collected at day 3 and day 6 of the dry-off period and the number of viable somatic cells counted on a Coulter® with a C256 Channelyzer. The total percentage of phagocytosis by PMNs is quantitatively measured by flow cytometry by measuring the percentage of cells ingesting 2μ fluorescent beads.
Somatic cells are isolated from mammary gland lavages on days 3 and 6 after treatment with Cefa-Dri® plu6 IL-2 or Cefa-Dri® alone. The cells are incubated with fluorescent latex micropheres and analyzed on the flow cytometer for their ability to phagocytize the beads.

Data set [3] relates to IL-2 dependant BT-2 T cell line. The data set is described as follows: Residual r-BoIL-2 bioactivity in dry cow gland secretions (BT-2 bioassay). It is filed as in vivo, bovine. As to the method: FIGS. 4(A-B): Measurement of Residual r-BoIL-2 Bioactivity in Secretions from Dry Cow Glands Infused with r-BolL-2
Secretions from 4 quarters (4 different cows) are infused with 1 mg of r-BoIL-2 at drying-off (2 quarters) or not treated with r-BoIL-2 (2 quarters). Dry gland secretions are collected at time 0,72,144 and 240 hours after infusion. All samples shown are from the 72 hour time point and are diluted 1:50 and 1:200, and assayed for amount of biologically active r-BoIL-2 using the IL-2 dependant BT-2 T cell line, panel B. The BT-2 cell line is a bovine T cell line which requires IL-2 for growth. By measuring the degree of proliferation of this cell line, one directly measures the amount of biologically active IL-2 in a test media. Data is expressed as a mean ^3 H-thymidine incorporation +/- S.D. of triplicate samples of BT-2 cells for each of the individual numbered animals. […] A standard assay of various concentrations of r-BoIL-2 in 2% dry secretions is also shown in panel A as a positive control.
To specifically study the presence of cytokines after a single intramammary infusion into dry cows, […] from four different cows, are infused with 1 mg r-BoIL-2 at dry-off. […] Secretions from dry cow quarters treated with 1 mg of r-BoIL-2 are collected at 72, 144 and 240 hours after dry cow treatment. As with the milk, a 1:50 dilution of dry secretion samples is made and these solutions assayed by the bioassay using BT-2 and compared to r-BoIL-2 diluted in media.

For a further data set, the system named is S. aureus. The data set is described as follows: Prevention of S. aureus mastitis in lactating animals. It is filed as in vivo, S. aureus (in lactating Holstein dairy cattle). As to conditions: for % CONTROL / % INFECTED: vs Control 1; for protection from subsequent S. aureus challenge: intramammary infusion, Table 1; for most efficacious time of administration for protective effect: relative to S. aureus challenge. From the text:
This maximal protection correlates with the peak quantitative biological response for this cytokine. […] This also correlates with the peak quantitative biological response of this cytokine and also marks the qualitative increase in phagocytosis and inducible superoxide, FIG. 2D & 2E.
^1 Single intramammary infusion administered after the PM milking. A
total of 100 mammary glands from 22 different lactating Holstein dairy
^2 All glands are free of bacteria on 5 successive samples after the
AM milking prior to the initial infusion.
^3 The total dose in mass of protein is indicated. The biological
^4 Infusions of cytokines were administerd simultaneously with S.
aureus 0, 24 or 48 hours proir to challenge with 30-200 CFUs of S.
^5 Individual quarters are considered cured if the milk samples remai
free of S. aureus. for 14 days after intramammary challenge with of S.
^6 The % Control = (1 - {% Infected After Therapy divided by Infected
in Control Quarters)} × 100.
*Quarters in Control 1 are challenged with 250 CFUs of S. aureus..
Quarters in Control 2 are challenged with 30 CFUs of S. aureus.

Some results are limits rather than exact numbers.

B1: recombinant bovine interleukin-2 (protein, UniProt P05016 21-155, looked up)
Interleukin-2: APTSSSTGNTMKEVKSLLLDLQLLLEKVKNPENLKLSRMHTFDFYVPKVNATELKHLKCLLEELKLLEEVLNLAPSKNLNPREIKDSMDNIKRIVLELQGSETRFTCEYDDATVNAVEFLNKWITFCQSIYSTMT
notes: recombinant bovine interleukin-2, obtained from IMMUNEX Corp. Seattle, WA
Regarding B1, the “time to return of milk production to pre-treatment levels after cessation of treatment” value in data set [1] (intramammary or intramuscular r-BoIL-2) was no more than 96 h. Further, the “decrease of milk production” value in data set [1] (intramammary, 4.5 mg, not statistically different from time 0 or control) is 12%; in data set [1] (intramammary, 13.5 mg, by the third infusion), 30-40%. Moreover, the “effect on milk production” value in data set [1] (intramammary, total dose less than 4.5 mg) was “No statistically significant effect on milk production”. The “phagocytic activity of cells of the dry gland” value in data set [2] is given as “seems to enhance the phagocytic activity of cells of the dry gland”. In addition, the “detectable r-BoIL-2 bioactivity in dry gland secretions” value in data set [3] (1 mg intramammary at dry-off, 72 hours after infusion, 1:50 dilution) is reported as “less than 0.024 .eta.g/ml”. Moreover, in data set [3] (1 mg intramammary at drying-off, 72, 144, 240 hours), the “residual r-BoIL-2 bioactivity in secretions” value is on record as “No r-BoIL-2 activity could be detected at any time point”. In addition, the “biologically active IL-2 in dry cow secretions” value in data set [3] (after 3 days, FIG. 4) is on record as “no biologically active IL-2 is detected after 3 days”. Also, the “% CONTROL” value in the data set with S. aureus (1 mg, 0 hrs) is given as 23%; in the data set with S. aureus (1 mg, -24 hrs) it was 89%; in the data set on S. aureus (1 mg, -48 hrs), 63%. The “% INFECTED” value in the data set with S. aureus (1 mg, 0 hrs) was 77%; with S. aureus (1 mg, -24 hrs) it was 11%; in the data set with S. aureus (1 mg, -48 hrs) it was 37%. Besides, the “protection from subsequent S. aureus challenge” value in the data set on S. aureus is reported as “capable of protecting the host from subsequent S. aureus challenge”. Also, the “most efficacious time of administration for protective effect” value in the data set on S. aureus was “most efficacious if administered 48 hours prior to S. aureus challenge”.

B2: recombinant bovine interleukin-1 (protein, UniProt P09428 114-266, looked up)
Interleukin-1 beta: APVQSIKCKLQDREQKSLVLASPCVLKALHLLSQEMNREVVFCMSFVQGEERDNKIPVALGIKDKNLYLSCVKKGDTPTLQLEEVDPKVYPKRNMEKRFVFYKTEIKNTVEFESVLYPNWYISTSQIEERPVFLGHFRGGQDITDFRMETLSP
notes: recombinant bovine interleukin-1, obtained from IMMUNEX Corp. Seattle, WA
In the case of B2, in the data set with S. aureus (1 μg, 0 hrs), the “% CONTROL” value was 87% and the “% INFECTED” value was 13%. For the same molecule, in the data set on S. aureus (1 μg, -24 hrs), the “% CONTROL” value is reported as 100% and the “% INFECTED” value turned out to be 0%. For the same molecule, in the data set on S. aureus (1 μg, -48 hrs), the “% CONTROL” value is 78% and the “% INFECTED” value was determined as 22%. Besides, in the data set with S. aureus, the “protection from subsequent S. aureus challenge” value was “capable of protecting the host from subsequent S. aureus challenge” and the “most efficacious time of administration for protective effect” value is recorded as “most efficacious if administered 24 hours prior to S. aureus challenge”.
